Laboratory results reported in paper PMC12828721.

Legend:
human CD64 (FcγRI) = human CD64 (FcγRI) (UniProt P12314); test: ELISA; details: highest concentration point (about 500 nM); parent: est. 3.4; read off a plot
murine CD64 (FcγRI) = murine CD64 (FcγRI) (UniProt P26151); test: ELISA; details: highest concentration point (about 1e4 nM); parent: est. 1.2; read off a plot
MSLN = test: BLI (Blitz); details: 800nM trace, read at end of association (about 120 s); parent: est. 0.63; read off a plot

Sequence of UniProt P26151 (P26151 25-404): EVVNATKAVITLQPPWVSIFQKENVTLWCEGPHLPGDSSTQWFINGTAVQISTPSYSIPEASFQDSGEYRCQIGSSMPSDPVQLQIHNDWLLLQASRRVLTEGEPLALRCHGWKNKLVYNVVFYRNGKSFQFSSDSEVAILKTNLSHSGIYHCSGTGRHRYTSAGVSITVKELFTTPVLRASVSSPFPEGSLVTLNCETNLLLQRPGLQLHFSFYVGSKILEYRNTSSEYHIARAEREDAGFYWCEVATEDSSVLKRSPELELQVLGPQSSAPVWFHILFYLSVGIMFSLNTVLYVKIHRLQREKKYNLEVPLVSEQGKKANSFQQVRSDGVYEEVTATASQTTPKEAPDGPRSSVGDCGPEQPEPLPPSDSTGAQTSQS
Sequence of UniProt P12314 (P12314 16-374): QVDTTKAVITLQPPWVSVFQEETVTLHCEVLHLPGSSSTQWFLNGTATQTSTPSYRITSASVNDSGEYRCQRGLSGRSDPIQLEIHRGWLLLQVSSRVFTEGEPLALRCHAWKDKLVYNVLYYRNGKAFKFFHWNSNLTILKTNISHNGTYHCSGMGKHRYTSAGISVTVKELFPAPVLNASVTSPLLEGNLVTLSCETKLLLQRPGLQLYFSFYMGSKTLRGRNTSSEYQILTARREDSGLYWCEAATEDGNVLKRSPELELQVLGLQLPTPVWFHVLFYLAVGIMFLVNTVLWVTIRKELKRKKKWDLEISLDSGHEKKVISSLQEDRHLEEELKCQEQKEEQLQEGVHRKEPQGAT

Substance	response (human CD64 (FcγRI)) [OD450]	response (murine CD64 (FcγRI)) [OD450]	response (MSLN) [nm]
2A10-VH-FcWT (from UniProt P01857) G236R; L328R	0.27	0.3	0.78
2A10-VH-FcWT (from UniProt P01857) L234A; L235A; P329G	0.22	0.25	0.78
